Measured values published in IntAct's records for PubMed 26694203.

B1: Mesoderm posterior protein 1 (Homo sapiens), Q9BRJ9 (parent)
chain: MAQPLCPPLSESWMLSAAWGPTRRPPPSDKDCGRSLVSSPDSWGSTPADSPVASPARPGTLRDPRAPSVGRRGARSSRLGSGQRQSASEREKLRMRTLARALHELRRFLPPSVAPAGQSLTKIETLRLAIRYIGHLSAVLGLSEESLQRRCRQRGDAGSPRGCPLCPDDCPAQMQTRTQAEGQGQGRGLGLVSAVRAGASWGSPPACPGARAAPEPRDPPALFAEAACPEGQAMEPSPPSPLLPGDVLALLETWMPLSPLEWLPEEPK

Variants of: B1
Conditions: with tfe2_human TCF3, P15923
Sequence of tfe2_human TCF3, P15923 (P15923 whole entry): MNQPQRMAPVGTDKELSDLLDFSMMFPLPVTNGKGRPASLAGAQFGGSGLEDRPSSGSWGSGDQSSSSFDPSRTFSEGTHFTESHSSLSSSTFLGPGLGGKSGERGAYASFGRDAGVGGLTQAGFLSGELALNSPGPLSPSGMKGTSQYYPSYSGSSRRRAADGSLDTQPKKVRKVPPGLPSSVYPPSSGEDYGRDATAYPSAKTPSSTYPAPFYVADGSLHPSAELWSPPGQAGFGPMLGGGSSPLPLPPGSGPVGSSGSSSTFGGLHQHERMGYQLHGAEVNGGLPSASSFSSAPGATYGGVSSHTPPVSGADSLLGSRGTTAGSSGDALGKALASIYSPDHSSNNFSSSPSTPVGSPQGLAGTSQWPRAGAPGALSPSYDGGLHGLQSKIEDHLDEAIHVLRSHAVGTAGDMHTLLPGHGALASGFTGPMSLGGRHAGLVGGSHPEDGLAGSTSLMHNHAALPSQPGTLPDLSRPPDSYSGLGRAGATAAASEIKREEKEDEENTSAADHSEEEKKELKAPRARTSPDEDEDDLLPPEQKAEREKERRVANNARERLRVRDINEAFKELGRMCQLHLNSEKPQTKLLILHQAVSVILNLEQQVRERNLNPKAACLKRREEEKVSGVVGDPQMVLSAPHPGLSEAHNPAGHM

| Variant | effect of a mutation on the interaction |
| --- | --- |
| L120P | decreasing interaction strength |
| G70D | with no effect |
| E104K | decreasing interaction strength |

Second part, the variant after the results:

| effect of a mutation on the interaction | Variant |
| --- | --- |
| with no effect | K268N |
| decreasing interaction strength | D168G |
